The values below come from publication PMC8799735, “Depletion of mitochondrial methionine adenosyltransferase α1 triggers mitochondrial dysfunction in alcohol-associated liver disease” (Nature Communications, 2022).

Settings in all cases: partners not purified
Assay [1] concerns the target T1, Peptidyl-prolyl cis/trans isomerase NIMA-interacting 1 (PIN1), endogenous human (human (endogenous in human hepatocytes, …, UniProt Q13526 1-163)).
T1 construct: source: endogenous, human hepatocyte lysate, human liver lysates and HepG2 lysate
Description: co-IP; human normal and end-stage cirrhotic ALD liver lysates; IP with anti-PIN1 or anti-MATα1 antibodies, western blot against MATα1 or PIN1, densitometry.

Assay [2] concerns the target T2, Peptidyl-prolyl cis/trans isomerase NIMA-interacting 1 (PIN1), endogenous mouse (mouse (endogenous in mouse hepatocytes, …, UniProt Q9QUR7 1-165)).
T2 construct: source: endogenous, mouse hepatocyte lysate, mouse liver whole lysates and cytosolic fractions, AML-12 lysate
Description: co-IP; AML-12 cell lysates, control or ethanol (100 mM, 48 h); IP with anti-PIN1 or anti-MATα1 antibodies, western blot, densitometry.

For assay [3], the target named is T2, Peptidyl-prolyl cis/trans isomerase …. Description: co-IP; whole liver lysates of pair-fed and ethanol-fed mice (NIAAA model); IP with anti-PIN1 or anti-MATα1 antibodies, western blot against MATα1 or PIN1, densitometry. For orientation: A western blot detects proteins with antibodies after separation by electrophoresis.

T2 sequence (Q9QUR7 whole entry): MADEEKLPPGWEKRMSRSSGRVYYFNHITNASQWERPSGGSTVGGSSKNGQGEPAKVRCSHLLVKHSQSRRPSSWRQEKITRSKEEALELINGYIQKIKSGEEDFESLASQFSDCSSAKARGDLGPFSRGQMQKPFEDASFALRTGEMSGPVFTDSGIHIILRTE
T1 sequence (Q13526 whole entry): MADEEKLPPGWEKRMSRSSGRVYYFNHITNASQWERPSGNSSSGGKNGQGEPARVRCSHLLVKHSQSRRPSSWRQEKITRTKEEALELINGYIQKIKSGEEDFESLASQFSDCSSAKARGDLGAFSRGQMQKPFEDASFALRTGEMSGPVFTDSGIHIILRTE

B1: Methionine adenosyltransferase α1 (MATα1), endogenous human (natural protein)
chain: not shown
notes: Methionine adenosyltransferase α1 (MATα1), human, endogenous in hepatocytes and liver; source: endogenous, human hepatocyte lysate and human liver lysates (normal, ALD)
For B1, the “fold of co-precipitated signal, alcoholic cirrhotic livers against normal human livers” value in assay [1] was found to be 3.3 fold.

B2: Methionine adenosyltransferase α1 (MATα1), endogenous mouse (natural protein)
chain: not shown
notes: Methionine adenosyltransferase α1 (MATα1), mouse, endogenous; source: endogenous, mouse hepatocyte lysate, mouse liver whole lysates and cytosolic fractions, AML-12 lysate
In the case of B2, in assay [2], the “fold of co-precipitated signal, ethanol-treated against control AML-12 cells” value was 3.5 fold. The “fold of co-precipitated signal, ethanol-fed against pair-fed mouse livers” value in assay [3] was determined as 2 fold.
